Results as given in US20090192112A1 (REGENTS OF THE UNIVERSITY OF MICHIGAN, published 2009).

Columns and labels:
β-catenin = biological target: T1, β-catenin (human, UniProt P35222 2-781); assay: co-IP with β-catenin antibody, anti-ATDC western blot, BxPC3 lysate
T1 construct: Endogenous protein in cell lysate; also called beta-catenin
T1 sequence (looked up): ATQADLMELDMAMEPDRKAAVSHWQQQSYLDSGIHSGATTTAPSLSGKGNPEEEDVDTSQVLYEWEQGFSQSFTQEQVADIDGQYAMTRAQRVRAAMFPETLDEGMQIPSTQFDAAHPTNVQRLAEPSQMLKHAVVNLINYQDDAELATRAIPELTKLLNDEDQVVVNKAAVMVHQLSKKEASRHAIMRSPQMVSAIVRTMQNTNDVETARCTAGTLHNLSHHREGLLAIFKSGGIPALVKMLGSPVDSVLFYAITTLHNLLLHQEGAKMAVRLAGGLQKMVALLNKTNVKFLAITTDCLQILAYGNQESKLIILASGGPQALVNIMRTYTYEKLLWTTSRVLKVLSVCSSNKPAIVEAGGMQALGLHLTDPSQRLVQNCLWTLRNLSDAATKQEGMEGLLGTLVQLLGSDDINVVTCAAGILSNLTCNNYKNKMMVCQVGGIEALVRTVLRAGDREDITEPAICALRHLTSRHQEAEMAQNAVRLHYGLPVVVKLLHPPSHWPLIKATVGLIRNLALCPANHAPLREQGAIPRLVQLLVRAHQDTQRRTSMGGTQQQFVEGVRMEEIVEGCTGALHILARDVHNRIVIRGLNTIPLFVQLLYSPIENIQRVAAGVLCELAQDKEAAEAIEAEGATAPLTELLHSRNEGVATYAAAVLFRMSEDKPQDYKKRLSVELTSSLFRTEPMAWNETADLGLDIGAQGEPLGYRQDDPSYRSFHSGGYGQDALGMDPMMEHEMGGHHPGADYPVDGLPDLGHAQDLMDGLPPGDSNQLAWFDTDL
Protocol: HEK 293 cells with or without stable transfection of ATDC and BxPC-3 cells were lysed by sonicating for 5 sec in 1 ml of detergent free lysis buffer (PBS, 5 mM EDTA, 0.02% sodium azide, 10 mM iodoacetamide, 1 mM PMSF and 2 μg leupeptin) at 4° C. […] Antibody conjugated beads were prepared by combining 1 μg of polyclonal antibodies with 30 μl of a 50% protein A-Sepharose bead slurry in 0.5 ml of ice-cold PBS for 1 hr at 4° C. in a tube rotator and then were washed two times with 1 ml of lysis buffer. The antibodies used for co-immunoprecipitation were: Dvl-2, β-catenin (Cell Signaling Technology, Beverly, Mass.), axin, and GSK3β (Upstate, Temecula, Calif.). Cell lysates (500 μg) was incubated with the prepared beads and 10 μl of 10% BSA overnight at 4° C. The beads were washed four times with washing buffer (50 mM Tris-Hcl [pH 7.4], 300 mM NaCl, 5 mM EDTA, 0.02% sodium azide, 0.1% Triton X-100) and one time with ice-cold PBS. […] Images were visualized using an ECL detection system.
To ascertain the mechanism by which ATDC stabilizes β-catenin, it was first examined whether ATDC interacts with the components of the multi-protein complex that regulates β-catenin stability.

disheveled-3 (Dvl-3) = biological target: T2, disheveled-3 (Dvl-3) (human, UniProt Q92997 1-716, limits assumed); assay: co-IP, BxPC3 lysate
T2 construct: Endogenous protein in cell lysate
T2 sequence (looked up): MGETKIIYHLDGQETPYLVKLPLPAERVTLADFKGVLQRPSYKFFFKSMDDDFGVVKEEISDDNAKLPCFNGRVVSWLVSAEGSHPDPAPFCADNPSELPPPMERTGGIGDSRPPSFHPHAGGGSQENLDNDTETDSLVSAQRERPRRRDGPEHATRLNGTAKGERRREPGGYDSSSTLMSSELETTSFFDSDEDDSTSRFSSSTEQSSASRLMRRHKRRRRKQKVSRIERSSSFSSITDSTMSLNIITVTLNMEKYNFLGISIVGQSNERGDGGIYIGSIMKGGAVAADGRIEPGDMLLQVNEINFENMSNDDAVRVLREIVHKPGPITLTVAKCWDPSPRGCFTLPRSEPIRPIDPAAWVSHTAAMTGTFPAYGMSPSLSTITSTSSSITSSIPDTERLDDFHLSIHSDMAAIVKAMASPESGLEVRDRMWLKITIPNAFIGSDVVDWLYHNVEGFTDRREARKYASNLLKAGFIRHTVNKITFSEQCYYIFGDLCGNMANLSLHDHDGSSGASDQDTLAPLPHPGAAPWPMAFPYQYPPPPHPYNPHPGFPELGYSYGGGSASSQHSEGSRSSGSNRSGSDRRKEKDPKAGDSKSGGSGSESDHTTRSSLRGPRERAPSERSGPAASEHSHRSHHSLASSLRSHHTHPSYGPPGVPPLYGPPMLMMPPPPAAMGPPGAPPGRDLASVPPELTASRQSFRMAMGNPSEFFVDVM

disheveled-1 (Dvl-1) = biological target: T3, disheveled-1 (Dvl-1) (human, UniProt O14640 1-695, limits assumed); assay: co-IP, BxPC3 lysate
T3 construct: Endogenous protein in cell lysate
T3 sequence (looked up): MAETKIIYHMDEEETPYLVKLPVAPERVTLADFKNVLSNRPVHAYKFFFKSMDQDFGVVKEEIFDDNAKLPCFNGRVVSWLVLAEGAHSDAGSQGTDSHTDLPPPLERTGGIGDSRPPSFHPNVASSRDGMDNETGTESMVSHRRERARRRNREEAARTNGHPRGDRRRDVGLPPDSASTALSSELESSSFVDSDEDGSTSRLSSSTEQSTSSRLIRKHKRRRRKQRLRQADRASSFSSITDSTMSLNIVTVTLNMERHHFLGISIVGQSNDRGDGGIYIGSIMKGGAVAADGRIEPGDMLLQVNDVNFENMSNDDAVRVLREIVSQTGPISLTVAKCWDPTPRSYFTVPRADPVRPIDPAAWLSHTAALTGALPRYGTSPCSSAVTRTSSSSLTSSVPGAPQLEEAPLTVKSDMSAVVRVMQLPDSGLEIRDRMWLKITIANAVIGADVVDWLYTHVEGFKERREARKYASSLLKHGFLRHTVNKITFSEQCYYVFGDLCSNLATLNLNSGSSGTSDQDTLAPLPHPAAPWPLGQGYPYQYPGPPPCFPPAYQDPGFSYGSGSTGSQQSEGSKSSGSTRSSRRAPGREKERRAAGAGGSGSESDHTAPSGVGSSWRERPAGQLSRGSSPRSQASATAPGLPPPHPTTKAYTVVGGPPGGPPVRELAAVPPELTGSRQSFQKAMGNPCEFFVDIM

binding result (β-catenin): no binding
binding result (disheveled-3 (Dvl-3)): no binding
binding result (disheveled-1 (Dvl-1)): no binding
B1: ATDC (Ataxia-Telangiectasia Group D Complementing Gene, also known as TRIM29), endogenous (other, UniProt Q14134 1-588, looked up)
chain: MEAADASRSNGSSPEARDARSPSGPSGSLENGTKADGKDAKTTNGHGGEAAEGKSLGSALKPGEGRSALFAGNEWRRPIIQFVESGDDKNSNYFSMDSMEGKRSPYAGLQLGAAKKPPVTFAEKGELRKSIFSESRKPTVSIMEPGETRRNSYPRADTGLFSRSKSGSEEVLCDSCIGNKQKAVKSCLVCQASFCELHLKPHLEGAAFRDHQLLEPIRDFEARKCPVHGKTMELFCQTDQTCICYLCMFQEHKNHSTVTVEEAKAEKETELSLQKEQLQLKIIEIEDEAEKWQKEKDRIKSFTTNEKAILEQNFRDLVRDLEKQKEEVRAALEQREQDAVDQVKVIMDALDERAKVLHEDKQTREQLHSISDSVLFLQEFGALMSNYSLPPPLPTYHVLLEGEGLGQSLGNFKDDLLNVCMRHVEKMCKADLSRNFIERNHMENGGDHRYVNNYTNSFGGEWSAPDTMKRYSMYLTPKGGVRTSYQPSSPGRFTKETTQKNFNNLYGTKGNYTSRVWEYSSSIQNSDNDLPVVQGSSSFSLKGYPSLMRSQSPKAQPQTWKSGKQTMLSHYRPFYVNKGNGIGSNEAP
notes: Endogenous protein in lysates of human pancreatic cancer cell lines (BxPC3, Panc-1); also called endogenous ATDC
